Source: patent US20060074222

Test system: Pin1 R14A (SEQ ID NO:2)

## phosphokinase A (PKA)
  MALDI-TOF of partial tryptic digest, mass gain of peptide 69-74: the peak corresponding to residues 69-74 of Pin1 gains ~80 Daltons after treatment with PKA
  proline isomerase activity (protease-coupled assay, rate constant of isomerization): phosphorylation of Pin1 R14A at position 71 by PKA inhibits the ability of the enzyme to isomerizes substrate
